Reference: US20260265332A1, “PROCESS FOR PREPARATION OF DUAL GIP/GLP-1 PEPTIDES HAVING CONTROLLED PARTICLE SIZE” (ASSIA CHEMICAL INDUSTRIES LTD., priority 2023, published 2026)
Values joined by “and” are separate entries in the source; they are usually repeats but may differ in a detail not shown here. Equal entries are not always repeated.

Columns and labels:
Format in all cases: physicochemical
[1] = Bulk density (BD), USP 2014 Method I (616) Bulk Density and Tapped Density of Powders; conditions: lyophilized Tirzepatide powder, before particle size reduction
Description: Bulk density (BD) was measured according to USP 2014 Method I (616) Bulk Density and Tapped Density of Powders.

[2] = Flowability, flow through an orifice (BEP2 Flowability Tester, 25 mm nozzle); conditions: lyophilized Tirzepatide powder; flow through funnel, 25 mm aperture
Text: Instrument: BEP2 Flowability Tester from Copley Scientific, with Funnel Attachment and Manually Operated Stirrer with a nozzle corresponding to aperture size of 25 mm.
Methodology: Flow Through an Orifice
The test sample was introduced into the funnel and the time required for the entire sample to flow out of the funnel was measure using a suitable stopwatch.
The flow rate results are expressed in terms of mass vs time, i.e., grams per second.

[3] = Particle size distribution by laser diffraction (Malvern Mastersizer 3000, Mie theory, Isopar-G); conditions: Tirzepatide powder after particle size reduction (jet milling or sieving)
Description: As used herein, particle size distribution is determined by means of laser diffractometry. More specifically, unless otherwise indicated, the particle size was determined using a Mastersizer 3000 from Malvern Instruments. Preferably, particle size and particle size distribution are determined by laser light diffraction, using Mie theory, and Isopar-G dispersant (isoparaffinic fluid (CAS No) 64742-48-9)) refractive index 1.42.
It will be understood that the term “D(90)” as used herein refers to a particle size distribution where 90% of the volume of particles have a diameter lower than the D(90) value.
• Instrumentation: Malvern Laser Diffraction Mastersizer 3000, Hydro My cell • Measuring range: 0.01-3500 mcm • Analysis model: Mie Theory • Powder RI: 1.488, Absorption: 1 • Dispersant name: Isopar-G • Dispersant RI: 1.42 • Speed rate of the flow cell: 2500 • Internal Sonication: 1 minute • Recirculation time: 1 minute

Substance | BD (bulk density) [1] [g/mL] | flowability [2] | particle size d(0.9) [3]
Tirzepatide [Example 1A] | 0.13 | 9.7 g/s | –
Tirzepatide [Example 1B] | 0.007 | non flowable | –
Tirzepatide [Example 1] | 0.1 | 6.1 g/s | –
Tirzepatide [Example 2] | – | – | 21.9 μm
Tirzepatide [Example 3A] | – | – | 59 μm and 59.1 μm
Tirzepatide [Example 3B] | – | – | 128 μm and 128.0 μm
Tirzepatide [Example 3] | – | – | 31 μm and 30.9 μm
